Measurements: publication doi:10.1101/2021.12.09.472013 (bioRxiv, 2021)

B1: SS-EGFP-torsinA^ΔNTD (natural protein, UniProt O14656 21-332, looked up)
chain: VEPISCLFAECCGQKRSLSREALQKDLDDNLFGQHLAKKIILNAVFGFINNPKPKKPLTLSLHGWTGTGKNFVSKIIAENIYEGGLNSDYVHLFVATLHFPHASNITLYKDQLQLWIRGNVSACARSIFIFDEMDKMHAGLIDAIKPFLDYYDLVDGVSYQKAMFIFLSNAGAERITDVALDFWRSGKQREDIKLKDIEHALSVSVFNNKNSGFWHSSLIDRNLIDYFVPFLPLEYKHLKMCIRVEMQSRGYEIDEDIVSRVAEEMTFFPKEERVFSDKGCKTVFTKLDYYYDD
B2: SS-torsinA^WT-EGFP (natural protein, UniProt O14656 21-332, looked up)
chain: VEPISLGLALAGVLTGYIYPRLYCLFAECCGQKRSLSREALQKDLDDNLFGQHLAKKIILNAVFGFINNPKPKKPLTLSLHGWTGTGKNFVSKIIAENIYEGGLNSDYVHLFVATLHFPHASNITLYKDQLQLWIRGNVSACARSIFIFDEMDKMHAGLIDAIKPFLDYYDLVDGVSYQKAMFIFLSNAGAERITDVALDFWRSGKQREDIKLKDIEHALSVSVFNNKNSGFWHSSLIDRNLIDYFVPFLPLEYKHLKMCIRVEMQSRGYEIDEDIVSRVAEEMTFFPKEERVFSDKGCKTVFTKLDYYYDD
B3: SS-EGFP-torsinA^WT (natural protein, UniProt O14656 21-332, looked up)
chain: B2 chain
B4: SS-EGFP-torsinA^50-332 (domain or fragment, UniProt O14656 50-332, looked up)
chain: CGQKRSLSREALQKDLDDNLFGQHLAKKIILNAVFGFINNPKPKKPLTLSLHGWTGTGKNFVSKIIAENIYEGGLNSDYVHLFVATLHFPHASNITLYKDQLQLWIRGNVSACARSIFIFDEMDKMHAGLIDAIKPFLDYYDLVDGVSYQKAMFIFLSNAGAERITDVALDFWRSGKQREDIKLKDIEHALSVSVFNNKNSGFWHSSLIDRNLIDYFVPFLPLEYKHLKMCIRVEMQSRGYEIDEDIVSRVAEEMTFFPKEERVFSDKGCKTVFTKLDYYYDD

Target: the molecule itself
Test: fluorescence fluctuation spectroscopy

Row | Protein | normalized brightness b | stoichiometry N
1 | B1 | ~13 | 
2 | B2 | > 3 | 
3 | B3 |  | ≥ 3
4 | B4 | ~8 | 
